Laboratory results reported in the supplement of paper PMC10567573.
± gives the standard deviation.

Assay: protein stability index of a GFP-peptide fusion (GPS, HEK-293T) (PSI 1-6); higher = more stable
[1] = treatment: DMSO, c terminus: a fixed tail appended
[2] = treatment: MLN4924 1 uM, 8 h, c terminus: a fixed tail appended
[3] = treatment: DMSO, c terminus: native
[4] = treatment: MLN4924 1 uM, 8 h, c terminus: native
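Also: 24-mer peptide tiles fused after GFP, lentivirally expressed, FACS-sorted into six equal bins by GFP/DsRed ratio, decoded by Illumina sequencing, PSI is the read-weighted mean bin number.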

Row | Sequence | protein stability index [1] | protein stability index [2] | protein stability index [3] | protein stability index [4]
1 | MFVFQDGRWVNENCRLQSPYFSPS [CBY2] | 2.36 ± 0.37 | 2.05 ± 0.42 |  | 
2 | RVKREFEPASAREAPASVVPFVRV [USP39] | 3.33 ± 0.57 | 3.5 ± 0.24 |  | 
3 | EPWLPLTDGRSPRRSRDPGYDHLW [PLEKHN1] | 3.68 ± 0.14 | 3.57 ± 0.26 |  | 
4 | IEELEREAERKIIEENITSAAPSN [SRPK2] | 5.34 ± 0.15 | 5.17 ± 0.25 |  | 
5 | LGAGSDLKDFTLNETVNSIFAQGA [ADAMTSL2] | 3.12 ± 0.2 | 3.28 ± 0.35 |  | 
6 | PSRGGNQLPRPPIVGGNKGRSGPL [WAS] | 4.6 ± 0.07 | 4.73 ± 0.22 |  | 
7 | NGSDNLPSSAGSGDKPLSDPAPF [TPD52L2] |  |  | 5.44 ± 0.21 | 5.51 ± 0.18
8 | AKNAAKDMNGKSLHGKAIKVEQAK [RBMY1A1] | 4.64 ± 0.23 | 5.01 ± 0.53 |  | 
9 | TEQLWRIFAGVHDEKAKPRDRQQA [TLE6] | 3.45 ± 0.26 | 3.76 ± 0.23 |  | 
10 | GVMSAYAMCVRYDGVEVDDSYCDA [ADAMTSL2] | 3.05 ± 0.15 | 2.91 ± 0.23 |  | 
11 | SAIVLGDLKLRKFVFSTEERTQLR [TRIB1] | 2.77 ± 0.48 | 2.92 ± 0.29 |  | 
12 | VLVLCVFNSILPGVLILFLTFFAF [SOAT1] | 3.37 ± 0.25 | 3.17 ± 0.22 |  | 
13 | SRGYRNHRSSRETRDYAPPSRGHA [RBMY1A1] | 4.63 ± 0.3 | 4.63 ± 0.4 |  | 
14 | RVHAGSKAALAALCPGDLIQAING [PDLIM4] | 2.95 ± 0.15 | 3.03 ± 0.12 |  | 
15 | SLRENDFIEIELDRQELTYQELLR [ANKRD40] | 3.37 ± 0.62 | 3.57 ± 0.39 |  | 
16 | GYTFGQDISETFNHANGLTLVSRA [PPP2CA] | 3.26 ± 0.3 | 3.19 ± 0.28 |  | 
17 | LALLVLAHSSDVLENVFSSLTDDK [GOLPH3L] | 2.85 ± 0.57 | 2.83 ± 0.49 |  | 
18 | DKENIYILLEYCSRRSMAHILKAR [PLK2] | 2.2 ± 0.29 | 2.55 ± 0.43 |  | 
19 | LSGVDLELVGSGYRMSLVKRRFAT [FCHO1] | 2.33 ± 0.2 | 2.37 ± 0.18 |  | 
20 | GVIQSVIGWKTVRMYPFQIHSIAL [CDS2] | 2.81 ± 0.34 | 2.94 ± 0.35 |  | 
21 | AFQAFTNDLLEILEIDDLDAIVPA [CEP70] | 2.73 ± 0.22 | 2.73 ± 0.5 |  | 
22 | LLKKKPPQQQHHKAKRNRTCRPPS [ANKRD17] | 3.93 ± 0.22 | 4 ± 0.29 |  | 

Row | Sequence | protein stability index [1] | protein stability index [2] | protein stability index [3] | protein stability index [4]
23 | PLAEQTPLTLQSQPKEPQLTCDSA [ZSCAN9] | 5.25 ± 0.28 | 5.35 ± 0.36 |  | 
24 | IIDNTNLHAWEMKPYAVMVFQTEQ [N4BP2L1] | 2.15 ± 0.25 | 2.09 ± 0.18 |  | 
25 | SEAWEYFHLAPARAGHHPNQYATC [ZBED2] | 2.59 ± 0.26 | 2.58 ± 0.23 |  | 
26 | QEELNRKAEELDRRERELQHAALG [SCAMP3] | 5.39 ± 0.21 | 5.24 ± 0.55 |  | 
27 | ADLWYLFGDLSLSLVTVGKHLTAR [POMT2] | 3.17 ± 0.74 | 2.56 ± 0.8 |  | 
28 | DANLLNDRVLRAMLKAEETCAPSV [CCND1] | 3.33 ± 0.34 | 3.61 ± 0.23 |  | 
29 | LLISCAVSYRGAWWYRNCHYANLN [TNXB] | 2.97 ± 0.19 | 2.99 ± 0.72 |  | 
30 | KTLQEIYRKYRKLIESELSYFVIV [FBXO39] | 2.37 ± 0.41 | 2.62 ± 0.55 |  | 
31 | SAEQLKAQAIDFINRCSVLRQLGC [SPOPL] | 2.21 ± 0.33 | 2.51 ± 0.28 |  | 
32 | KFSYMWTINNFSFCREEMGEVLKS [SPOPL] | 2.34 ± 0.25 | 2.19 ± 0.42 |  | 
33 | ESSVPSTVGCSSQHTPDQANSDRA [PLEKHN1] | 5.42 ± 0.2 | 5.61 ± 0.16 |  | 
34 | PETQARLEALLEAAGIGKLSTADG [ANKRD17] | 2.95 ± 0.32 | 3.18 ± 0.42 |  | 
35 | CMSFNPETRRLSIGLDNGTISEFI [WDFY2] | 2.42 ± 0.56 | 2.89 ± 0.38 |  | 
36 | CCEFLKRQLDPSNCLGIRAFADTH [KLHL20] | 2.62 ± 0.69 | 2.42 ± 0.48 |  | 
37 | ENAQIIYSLAEDTIQGVPLSSYIS [PCDHGA10] | 2.51 ± 0.41 | 2.82 ± 0.43 |  | 
38 | QWILDKQDLLKERQKDLKFLSEEE [CCNC] | 4.43 ± 0.26 | 4.53 ± 0.097 |  | 
39 | YQARKPLWFYNTSLKFFLNKPMLA [RHOBTB3] | 2.67 ± 0.57 | 1.97 ± 0.19 |  | 
40 | SCKEGLSPRGPAPGEEKFENLEGV [ZNF263] | 5.37 ± 0.16 | 5.23 ± 0.36 |  | 
41 | IIWFSFELVVRFFACPSKTDFFKN [KCNA1] | 2.88 ± 0.37 | 3.04 ± 0.36 |  | 
42 | IFMGYQNVEDEAETKKVLGLQDTI [PALM] | 3.27 ± 0.26 | 3.35 ± 0.3 |  | 
43 | ASTKMCEQALGKGCGADSKKKRPP [PLK2] | 4.58 ± 0.11 | 4.76 ± 0.24 |  | 
44 | PMQESKAEGNNQAPGEEEEEEEEA [CHGA] | 5.49 ± 0.39 | 5.74 ± 0.15 |  | 

Row | Sequence | protein stability index [1] | protein stability index [2] | protein stability index [3] | protein stability index [4]
45 | LRLYKHNSQALLLHSSILTCTLLL [MFSD9] | 2.74 ± 0.6 | 2.88 ± 0.67 |  | 
46 | TSAVLKAGRQSVSGRKNSTSKDLV [C6orf223] | 4.26 ± 0.074 | 4.38 ± 0.22 |  | 
47 | TLGELKQNLSRSWHDVQVSSAYVK [TPD52L2] | 2.96 ± 0.23 | 3.26 ± 0.27 |  | 
48 | DKCSAPKIWRTPNGKTIEMDTQFT [IQUB] | 3.53 ± 0.28 | 3.6 ± 0.21 |  | 
49 | RYEPDSKAFGVGVAYRSLGRFEQL [FSD1] | 2.48 ± 0.38 | 2.63 ± 0.33 |  | 
50 | SKSKEEVSSLISEKTNGATPLLMA [FEM1C] | 4.26 ± 0.42 | 4.49 ± 0.24 |  | 
51 | RFDGLPAVLGFPGFSSGRHRWQVD [TRIM15] | 2.62 ± 0.12 | 2.54 ± 0.18 |  | 
52 | VLSLVKKHYRLQFYMFAWTHVTLL [CDS1] | 3.25 ± 0.56 | 2.8 ± 0.56 |  | 
53 | KCIFTQFRIILGDFDYNAIDNANR [PKD2L1] | 2.41 ± 0.32 | 2.52 ± 0.36 |  | 
54 | EDDGLQSAFTAAHELGHVFNMLHD [ADAMTS4] | 3.77 ± 0.28 | 3.9 ± 0.4 |  | 
55 | FKLTNKNSDRMTHCGVLEFVADEG [UFD1] | 3.32 ± 0.18 | 3.27 ± 0.31 |  | 
56 | ELQQRNPKAERLRWSPAQEESFRQ [ZNF232] | 3.3 ± 0.37 | 3.49 ± 0.77 |  | 
57 | LDKQMSRDEHRARAMKIPFTNDKI [NFE2L1] | 4.13 ± 0.32 | 4.28 ± 0.25 |  | 
58 | PSPGVLCGSARPKPYDPPGEKMVA [ATF4] | 4.37 ± 0.28 | 4.6 ± 0.23 |  | 
59 | ILTERVSLPFKPFAIILPILLNIR [MIA2] | 2.25 ± 0.55 | 3.79 ± 0.64 |  | 
60 | MASLGPAAAGEQASGAEAEPGPAG [BTBD1] | 5.55 ± 0.16 | 5.52 ± 0.31 |  | 
61 | RQLAYSTVGTPDYIAPEVFMQTGY [STK38L] | 3.06 ± 0.46 | 3.29 ± 0.42 |  | 
62 | LQGALDLLAVLCVDGSGRARQAAC [ZSWIM9] | 2.2 ± 0.27 | 2.02 ± 0.18 |  | 
63 | KTRVDLKELGQSQKEQGLSDNILS [PDZK1] | 4.55 ± 0.1 | 4.88 ± 0.4 |  | 
64 | ASSRASENQSPSSSNYFSPRESTD [ZBTB22] | 5.3 ± 0.29 | 5.167 ± 0.043 |  | 
65 | LAVAVPAVTSADSQFSQTTQAGS [LYSMD4] |  |  | 3.91 ± 0.64 | 3.96 ± 0.32
